Source: patent US20220348651A1, “ENTPD2 ANTIBODIES, COMBINATION THERAPIES, AND METHODS OF USING THE ANTIBODIES AND COMBINATION THERAPIES” (Novartis AG, priority 2019, published 2022)

T1: ENTPD2 (Homo sapiens, UniProt Q9Y5L3)
T1 sequence (Q9Y5L3 1-495): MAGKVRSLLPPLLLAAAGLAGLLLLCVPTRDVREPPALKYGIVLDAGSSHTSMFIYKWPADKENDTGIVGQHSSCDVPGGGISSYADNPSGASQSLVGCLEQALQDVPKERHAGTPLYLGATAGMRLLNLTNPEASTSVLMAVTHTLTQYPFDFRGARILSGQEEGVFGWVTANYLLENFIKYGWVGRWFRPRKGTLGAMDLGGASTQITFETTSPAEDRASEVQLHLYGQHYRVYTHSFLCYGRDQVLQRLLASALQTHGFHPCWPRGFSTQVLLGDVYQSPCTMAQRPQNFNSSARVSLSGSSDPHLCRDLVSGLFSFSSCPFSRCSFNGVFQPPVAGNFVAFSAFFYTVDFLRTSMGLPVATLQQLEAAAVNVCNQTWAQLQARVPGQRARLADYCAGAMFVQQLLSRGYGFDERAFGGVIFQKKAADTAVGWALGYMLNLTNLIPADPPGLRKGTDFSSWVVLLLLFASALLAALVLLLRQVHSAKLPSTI

T2: human ENTPD2 (Homo sapiens, UniProt Q9Y5L3)
T2 construct: residues 29-462 of human or cyno ENTPD2 were cloned into expression vector; GP67 signal peptide (N); made in house; host or cells: High Five (Trichoplusia ni) insect cells, baculovirus
T2 sequence (Q9Y5L3 29-462): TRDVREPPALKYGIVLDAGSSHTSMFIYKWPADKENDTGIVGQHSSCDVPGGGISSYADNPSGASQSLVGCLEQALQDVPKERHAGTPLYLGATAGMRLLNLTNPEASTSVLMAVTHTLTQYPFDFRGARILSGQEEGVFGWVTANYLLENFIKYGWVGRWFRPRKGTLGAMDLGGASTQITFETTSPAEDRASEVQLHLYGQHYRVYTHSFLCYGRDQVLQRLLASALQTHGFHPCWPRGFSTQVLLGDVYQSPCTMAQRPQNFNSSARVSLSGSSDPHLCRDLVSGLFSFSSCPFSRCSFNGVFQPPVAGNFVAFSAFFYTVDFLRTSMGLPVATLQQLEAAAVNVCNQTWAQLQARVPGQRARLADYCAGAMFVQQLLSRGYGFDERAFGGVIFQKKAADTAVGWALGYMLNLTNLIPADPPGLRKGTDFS

B1: mAb13: anti-mouse ENTPD2 antibody; HC SEQ ID NO: 193, LC SEQ ID NO: 204 (antibody)
heavy: QVQLVQSGAELKQPGQSVKISCKASGYTFTHYGMNWVKQAPGQGLKWMGWINTDTGNPTYADDFKGRFVFSLDTSVSTAYLQISNLKNEDTATYYCVRYGTLYSGYGFFFDSWGQGTLVTVSSAKTTAPSVYPLAPVCGDTTGSSVTLGCLVKGYFPEPVTLTWNSGSLSSGVHTFPAVLQSDLYTLSSSVTVTSSTWPSQSITCNVAHPASSTKVDKKIEPRGPTIKPCPPCKCPAPNLLGGPSVFIFPPKIKDVLMISLSPIVTCVVVDVSEDDPDVQISWFVNNVEVHTAQTQTHREDYNSTLRVVSALPIQHQDWMSGKEFKCKVNNKDLPAPIERTISKPKGSVRAPQVYVLPPPEEEMTKKQVTLTCMVTDFMPEDIYVEWTNNGKTELNYKNTEPVLDSDGSYFMYSKLRVEKKNWVERNSYSCSVVHEGLHNHHTTKSFSRTPGK
light: DIMMTQSPSSLSVSAGEKATITCKSSQSLFNSNTNKNYLNWYLQKPGQSPKLLFYYASTRHTGVPDRFIGSGSGTDFTLTITSVQDEDLADYYCQQWYSYPWTFGPGTKLEIKRADAAPTVSIFPPSSEQLTSGGASVVCFLNNFYPKDINVKWKIDGSERQNGVLNSWTDQDSKDSTYSMSSTLTLTKDEYERHNSYTCEATHKTSTSPIVKSFNRNEC
B2: mAb7: humanized anti-human ENTPD2 antibody from mAb17; VH SEQ ID NO: 25, VL SEQ ID NO: 78 (antibody, V domains shown)
VH: QVQLVQSGAEVVKPGASVKISCKASGYTFTDYNMDWVKQAPGQRLEWIGDINPKYDISTYNQQFKGKATITVDKSASTAYMELSSLRSEDTAVYYCARRGFFLYYGINYYYFDVWGQGTLVTVSS
VL: EIVLTQSPATLSASPGEEITLSCSASSSVSYIHWYQQKPGQAPRLLIYSTSNLASGIPARFSGSGSGTFYTLTISSVEPEDAAVYYCHQWSSYPWTFGGGTKLEIK

Assays:
cyno ENTPD2 = experiment: FACS binding to cyno ENTPD2 expressing cells (apparent FACS affinity); design: species or system cynomolgus monkey
Sequence of cyno ENTPD2 (as listed by the source): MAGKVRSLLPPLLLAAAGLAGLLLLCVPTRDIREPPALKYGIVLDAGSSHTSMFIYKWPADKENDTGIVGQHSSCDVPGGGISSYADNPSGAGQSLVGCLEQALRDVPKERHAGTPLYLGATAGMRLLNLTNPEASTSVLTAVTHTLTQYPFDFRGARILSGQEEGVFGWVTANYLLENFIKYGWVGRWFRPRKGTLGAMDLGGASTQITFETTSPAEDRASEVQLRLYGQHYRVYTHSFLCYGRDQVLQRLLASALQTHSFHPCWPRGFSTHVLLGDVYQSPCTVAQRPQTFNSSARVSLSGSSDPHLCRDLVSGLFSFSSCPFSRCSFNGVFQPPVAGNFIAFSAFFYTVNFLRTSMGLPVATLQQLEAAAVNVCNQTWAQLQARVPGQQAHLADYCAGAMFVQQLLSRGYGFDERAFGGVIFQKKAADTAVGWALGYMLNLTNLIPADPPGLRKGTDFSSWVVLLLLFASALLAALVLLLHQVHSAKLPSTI
Description: (§1) FACS screening: Specific binding of candidate antibodies to endogenously expressed ENTPD2 was assessed by flow cytometry. Cells were rinsed thoroughly with 1×PBS and treated with Accutase (Millipore #SCR005) to lift from growth plates and resuspended at approximately 1×10^5 cells/90 μL in 1× FACS buffer (2% FBS+0.1% NaN3 in PBS). In a 96-well U-bottom plate, 10 μL of 10× antibody solution in FACS buffer was pre-seeded and 90 μL of cell suspension was added. Cell were incubated for 30 minutes at 4° C., washed 1× with cold PBS and resuspended in 100 μL of 1:500 secondary antibody 1× FACS buffer (Allophycocyanin conjugated F(ab′)2 goat anti-human IgG, Fcγ specific; Jackson Immunoresearch, Cat#109-136-098). After additional incubation for 15 min at 4° C., cells were washed twice with PBS and resuspended in 100 μL of 1×FACS buffer with 4 μg/mL propidium iodide (Life Technologies, Cat#P3566). Geometric mean fluorescence intensity was calculated on live single cells using FlowJo software.

ENTPD2 = target: T1, ENTPD2; experiment: FACS binding to human ENTPD2 expressing cells (apparent FACS affinity); design: expressed in transfected cells; host or cells: NIH/3T3 (retroviral transduction)
Description: as §1, with “FACS screening: Specific binding of candidate antibodies to endogenously expressed ENTPD2 was assessed by flow cytometry.” left out

human ENTPD2 = target: T2, human ENTPD2; experiment: Biacore (SPR) affinity to human ENTPD2 ECD; assay type: binding; conditions: 25° C.
Description: (§2) Biacore Screening: Affinity was measured by determining the kinetic rate constants using surface plasmon resonance (SPR) on a Biacore T200 or T100 with the T200 sensitivity upgrade instrument (Biacore, GE Healthcare). Antibodies were captured on CM5 sensor chips (Biacore, GE Healthcare) prepared with a mouse anti-human IgG Fc antibody (ThermoFisher catalogue #05-4200) amine coupled to the surface. […] ENTPD2 analytes were allowed to associate for 180 s and dissociate for up to 1800 s depending on the off-rate of the antibody at a flow rate of 30 μL/min. The running buffer was PBS pH 7.2 (prepared from a Corning 10X stock, cat#46-013-CM)+0.05% Tween 20. Regeneration was accomplished with 30 s injections of 3 or 4 M MgCl2 to remove all the captured antibody and remaining complex from the surface, after which fresh antibody was captured. The raw data were analyzed using Biacore T200 Evaluation Software version 1.0 and fit to a 1:1 binding model, with all parameters set to fit globally except for RI, which was set to fit locally.

[1] = target: cynomologus (cyno) ENTPD2; experiment: Biacore (SPR) affinity to cyno ENTPD2 ECD; assay type: binding, cynomolgus monkey; conditions: 25° C.
Sequence of cynomologus (cyno) ENTPD2 (as listed by the source): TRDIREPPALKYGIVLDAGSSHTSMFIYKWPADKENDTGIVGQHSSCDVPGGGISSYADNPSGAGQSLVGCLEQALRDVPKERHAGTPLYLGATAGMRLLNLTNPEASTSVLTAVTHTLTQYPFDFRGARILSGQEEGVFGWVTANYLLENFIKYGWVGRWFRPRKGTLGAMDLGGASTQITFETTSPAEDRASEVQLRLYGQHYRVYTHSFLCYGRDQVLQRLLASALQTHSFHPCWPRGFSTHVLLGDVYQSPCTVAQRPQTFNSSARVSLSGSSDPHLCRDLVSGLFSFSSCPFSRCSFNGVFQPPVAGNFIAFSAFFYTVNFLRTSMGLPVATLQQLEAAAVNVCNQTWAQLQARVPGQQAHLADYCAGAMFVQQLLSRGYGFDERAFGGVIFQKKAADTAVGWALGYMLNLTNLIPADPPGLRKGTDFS
Description: as §2

NIH/3T3 cells = experiment: Cross reactivity: FACS binding to NIH/3T3 control cells; conditions: 50 nM antibody
Description: as §1
Cross reactivity Human ENTPD1 (NP_001767) expressing NIH/3T3 cells were generated using a retroviral transduction approach. 72 hrs post transduction, engineered cells were stained with the anti-Human CD39/ENTPD1 APC-conjugated Antibody (R&D systems, Minneapolis, Minn.) and live cells that expressed human ENTPD1 were separated from the rest of the population via fluorescence activated cell sorting. […]

Row | Molecule | binding to cyno ENTPD2 (cyno ENTPD2) | binding to human ENTPD2 (ENTPD2) | Kd (human ENTPD2) [pM] | ka (human ENTPD2) [M⁻¹ s⁻¹] | kd (human ENTPD2) [s⁻¹] | Kd [1] [pM] | ka [1] [M⁻¹ s⁻¹] | kd [1] [s⁻¹] | EC50 (cyno ENTPD2; NIH3T3 cynoENTPD2 cells) [pM] | Apparent FACS binding at 50 nM (NIH/3T3 cells) | EC50 (ENTPD2; NIH3T3 humanENTPD2 cells) [pM]
1 | B1 | no binding | no binding |  |  |  |  |  |  |  |  | 
2 | B2 |  |  | 900 | 210000 | 0.00019 | 1100 | 1.2e+06 | 0.0012 | 800 | No binding | 500
